{"source": "paper PMC2018643", "about": "(Nucleic Acids Research, 2007)", "proteins": {"B1": {"name": "His(6)-Rrp47p (natural protein, S. cerevisiae, UniProt P38801 1-184, looked up)", "chain": "MEDIEKIKPYVRSFSKALDELKPEIEKLTSKSLDEQLLLLSDERAKLELINRYAYVLSSLMFANMKVLGVKDMSPILGELKRVKSYMDKAKQYDNRITKSNEKSQAEQEKAKNIISNVLDGNKNQFEPSISRSNFQGKHTKFENDELAESTTTKIIDSTDHIRKASSKKSKRLDKVGKKKGGKK"}}, "target": "the molecule itself", "test": "SEC"}
{"protein": "B1", "values": [{"measurement": "stoichiometry N", "result": 6}]}
